Test results published in patent publication US20190062422A1 (MorphoSys, published 2019).

T1: mouse IL-17RB (mouse, UniProt Q9JIP3 18-286)
T1 construct: extracellular domain; also called IL17 receptor B
T1 sequence (looked up): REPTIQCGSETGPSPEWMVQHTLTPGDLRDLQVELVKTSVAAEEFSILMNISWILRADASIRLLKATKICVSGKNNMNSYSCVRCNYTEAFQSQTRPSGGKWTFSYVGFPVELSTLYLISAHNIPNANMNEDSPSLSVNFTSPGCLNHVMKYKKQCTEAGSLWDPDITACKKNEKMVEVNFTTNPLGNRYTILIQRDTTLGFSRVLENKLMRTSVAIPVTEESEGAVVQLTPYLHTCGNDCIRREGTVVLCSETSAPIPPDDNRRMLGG

T2: mouse IL-17B (mouse, UniProt Q9QXT6 23-180, limits assumed)
T2 sequence (looked up): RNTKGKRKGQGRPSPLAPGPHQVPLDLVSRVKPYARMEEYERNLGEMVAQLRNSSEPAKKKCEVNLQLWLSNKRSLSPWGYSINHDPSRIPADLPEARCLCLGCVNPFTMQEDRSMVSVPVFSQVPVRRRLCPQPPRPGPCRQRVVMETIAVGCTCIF

T3: human IL17C (human, UniProt Q9P0M4 19-197)
T3 sequence: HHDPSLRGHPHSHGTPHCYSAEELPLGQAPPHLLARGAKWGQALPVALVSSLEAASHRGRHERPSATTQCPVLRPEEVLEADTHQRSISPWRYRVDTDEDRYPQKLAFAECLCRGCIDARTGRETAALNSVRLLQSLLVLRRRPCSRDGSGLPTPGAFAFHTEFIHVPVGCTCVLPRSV

B1: mouse IL17C (ligand, UniProt Q8K4C5 17-194, looked up)
chain: DPPSWGKPRSHRTLRCYSAEELSHGQAPPHLLTRSARWEQALPVALVASLEATGHRRQHEGPLAGTQCPVLRPEEVLEADTHERSISPWRYRIDTDENRYPQKLAVAECLCRGCINAKTGRETAALNSVQLLQSLLVLRRQPCSRDGTADPTPGSFAFHTEFIRVPVGCTCVLPRSTQ
modifications: biotinylated in the receptor interaction, inhibition and serum stability assays (sites not given)
notes: Bought recombinant protein; About 22 kDa reduced and about 40 kDa non-reduced on SDS-PAGE; Used plain (coated, ELISA) or biotinylated; also called biotinylated mouse IL17C; biotin-IL17C

Columns and labels:
mouse IL-17RB = biological target: T1, mouse IL-17RB; test: MSD receptor interaction assay, coated receptor, biotinylated mouse IL17C, streptavidin detection
Description: To test binding of mouse IL17 to its putative receptor, IL17 receptor E an interaction assay was set up. The assay setup is depicted in FIG. 1A. In brief, IL17 receptors B and E were coated on a Multi-array® 384-well plate Standard plate (Meso Scale Discovery; #L21XA-4) and biotinylated mouse IL17C was added. Binding of mouse IL17C to its receptor was measured via binding of Streptavidin in a MSD Sector Imager 6000 (Meso Scale Discovery, Gaithersburg, Md., USA).

mouse IL-17B [1] = biological target: T2, mouse IL-17B; test: ELISA, purified chimeric IgG2a
human IL17C [2] = biological target: T3, human IL17C; test: ELISA, purified chimeric IgG2a
mouse IL17C [3] = biological target: B1; test: solution equilibrium titration (SET), ECL based, monovalent Fab fragment (Fab_FH format)
Description: Monovalent affinities of anti-IL17C antibodies were determined by solution equilibrium titration (SET) using Fab fragments. Affinity determination in solution was basically performed as described in the literature (Friquet et al., (1985) J. Immunol. Meth. 77: 305-19). In order to improve the sensitivity and accuracy of the SET method, it was transferred from classical ELISA to ECL based technology (Haenel et al. (2005) Anal Biochem. 339.1: 182-84). Binders were expressed and purified in Fab_FH format.

human IL17C [4] = biological target: T3, human IL17C; test: ELISA, purified chimeric human/mouse IgG2a on huIL-17C
mouse IL-17B [5] = biological target: T2, mouse IL-17B; test: ELISA, purified chimeric human/mouse IgG2a on msIL-17B
mouse IL17C [6] = biological target: B1; test: ELISA, purified chimeric human/mouse IgG2a titrated on mouse IL17C, n=1-2
Description: All purified chimeric human-mouse chimeric IgG2a antibodies were titrated on mouse IL17C for EC₅₀ determination in ELISA starting with a concentration of 100 nM. EC₅₀ values on mouse IL17C were determined in 1 to 3 independent experiments.

mouse IL17C [7] = biological target: B1; test: ELISA on biotin-IL17C captured on avidin: chimeric IgG2a incubated 24 h at 37°C in mouse serum against freshly diluted IgG2a
Description: 96 well Maxisorp plates (Nunc; #442404) were coated with avidin at a concentration of 1 μg/ml in PBS overnight at 4° C. The next day, anti-IL17 chimeric IgG2a were incubated in mouse serum for 24 h at 37° C. at a final concentration 100 μg/mL. After the incubation step the antibodies were diluted 1:100 in LowCross buffer (Candor Bioscience; #100500). As a reference the same set of antibodies were freshly diluted in LowCross buffer+1% mouse serum and incubated for 30 min at RT. Avidin coated plates were incubated with blocking buffer (Superblock blocking buffer from Pierce, #37515) and subsequently 100 μL of 0.1 μg/mL biotin-IL17C in LowCross buffer was added to blocked wells. After a washing step a serial dilution of the serum-incubated and freshly diluted IgGs was added. Binding of IgGs was detected by anti-mouse-IgG2a POD conjugated detection antibody (diluted 1:5000 in LowCross buffer) using TMB One Component HRP as substrate. The reaction was stopped by adding 1M HCl and absorbance was measured at 450 nm.

mouse IL17C [8] = biological target: B1; test: mIL17C - mIL-17RE inhibition assay (MSD): human/mouse IgG2a pre-incubated with biotinylated mouse IL17C, binding to coated mouse IL17RE/Fc detected by Streptavidin-ECL
Description: To determine inhibitory activity of purified anti-IL17C human-mouse chimeric IgG2a in a mIL-17 RE interaction assay, Maxisorp™ 384 well MSD plates were coated with 30 μL mouse IL17RE/Fc at 75 ng/mL in PBS at 4° C. overnight. The next day 25 μL of a serial antibody dilution (concentrations from 0.001 to 100 nM) were pre-incubated for 30 min at RT with an equal volume of biotinylated mouse IL17C at 0.125 nM. After blocking of plates for 1 h with 2.5% BSA in PBST, preformed antibody-ligand complexes were added for 1 h to coated IL17RE/Fc and receptor binding was detected via Streptavidin-ECL using MSD Sector Imager.
To characterize the antibodies in human/mouse IgG2a format in more detail, for each candidate IC₅₀ values were determined in the IL-17 receptor E inhibition assay as described herein above in up to 4 independent experiments.

Binder | binding result (mouse IL-17RB) | binding result (mouse IL-17B [1]) | binding result (human IL17C [2]) | Kd (mouse IL17C [3]) | binding result (human IL17C [4]) | binding result (mouse IL-17B [5]) | EC50 (mouse IL17C [6]) | Coefficient of variation (Mouse Serum Stability Assay 24h/37°C) (mouse IL17C [7]) | IC50 (mouse IL17C [8])
B1 | no binding |  |  |  |  |  |  |  | 
MOR12753 (antibody, V domains shown, Tested as human-mouse chimeric IgG2a (human variable, mouse constant regions); Potential N-linked glycosylation sites were removed by site-directed mutagenesis) VH: QVQLQQSGPGLVKPSQTLSLTCAISGDSVSSSSAAWNWIRQSPSRGLEWLGRIEYRSKWYNDYAVSVKSRITINPDTSKNQFSLQLNSVTPEDTAVYYCAREMYYYSGYGVFDVWGQGTLVTVSS VL: DIELTQPPSVSVSPGQTASITCSGDALGGEYVHWYQQKPGQAPVLVIYDDDKRPSGIPERFSGSNSGNTATLTISGTQAEDEADYYCSSFDTWTSYVFGGGTKLTVLG |  | no binding | no binding | 0.062 nM |  |  |  |  | 
MOR12744 (antibody, V domains shown, Tested as human-mouse chimeric IgG2a (human variable, mouse constant regions); Potential N-linked glycosylation sites were removed by site-directed mutagenesis) VH: QVQLVQSGAEVKKPGASVKVSCKASGYTFTSNFIHWVRQAPGQGLEWMGWISPYNGDTNYAQKFQGRVTMTRDTSISTAYMELSRLRSEDTAVYYCARESVYYGSDYGYNGMDIWGQGTLVTVSS VL: DIELTQPPSVSVSPGQTASITCSGDNLGEEYVSWYQQKPGQAPVLVIYDDTKRPSGIPERFSGSNSGNTATLTISGTQAEDEADYYCASWAFYSSQVFGGGTKLTVLG |  |  |  | 0.053 nM | no binding | no binding | 0.28 nM | 11.8% | 0.012 nM
MOR12745 (antibody, V domains shown, Tested as human-mouse chimeric IgG2a (human variable, mouse constant regions); Potential N-linked glycosylation sites were removed by site-directed mutagenesis) VH: QVQLVQSGAEVKKPGASVKVSCKASGYTFTSNFIHWVRQAPGQGLEWMGWISPYNGDTNYAQKFQGRVTMTRDTSISTAYMELSRLRSEDTAVYYCARESVYYGSDYGYNGMDIWGQGTLVTVSS VL: DIELTQPPSVSVSPGQTASITCSGDNLGEEYVSWYQQKPGQAPVLVIYDDTKRPSGIPERFSGSNSGNTATLTISGTQAEDEADYYCSAWATWSVAVFGGGTKLTVLG |  |  |  | 0.075 nM | no binding | no binding | 0.4 nM | 15.9% | 0.013 nM
MOR12746 (antibody, V domains shown, Tested as human-mouse chimeric IgG2a (human variable, mouse constant regions); Potential N-linked glycosylation sites were removed by site-directed mutagenesis) VH: QVQLVQSGAEVKKPGASVKVSCKASGYTFTSNFIHWVRQAPGQGLEWMGWISPYNGDTNYAQKFQGRVTMTRDTSISTAYMELSRLRSEDTAVYYCARESVYYGSDYGYNGMDIWGQGTLVTVSS VL: DIELTQPPSVSVSPGQTASITCSGDNLGEEYVSWYQQKPGQAPVLVIYDDTKRPSGIPERFSGSNSGNTATLTISGTQAEDEADYYCSSWTHFSNIVFGGGTKLTVLG |  |  |  | 0.056 nM | no binding | no binding | 0.38 nM | 7.36% | 0.023 nM
MOR12742 (antibody, V domains shown, Tested as human-mouse chimeric IgG2a (human variable, mouse constant regions); Potential N-linked glycosylation sites were removed by site-directed mutagenesis) VH: QVQLVQSGAEVKKPGSSVKVSCKASGGTFSSYGISWVRQAPGQGLEWMGRIIPIFGTAYYAQKFQGRVTITADESTSTAYMELSSLRSEDTAVYYCARDMRYHDYWPYYYGSDQFDVWGQGTLVTVSS VL: DIVLTQPPSVSGAPGQRVTISCSGSSSNIGSDIVSWYQQLPGTAPKLLIYYNNLRPSGVPDRFSGSKSGTSASLAITGLQAEDEADYYCQSWDWASLAMVFGGGTKLTVLG |  | no binding | no binding |  |  |  |  |  | 
MOR12754 (antibody, V domains shown, Tested as human-mouse chimeric IgG2a (human variable, mouse constant regions); Potential N-linked glycosylation sites were removed by site-directed mutagenesis) VH: EVQLLESGGGLVQPGGSLRLSCAASGFTFSDYAMTWVRQAPGKGLEWVSVISYDGSLTYYADSVKGRFTISRDNSKNTLYLQMNSLRAEDTAVYYCARDPGVWWLSYLDYWGQGTLVTVSS VL: DIQMTQSPSSLSASVGDRVTITCRASQDIISYLAWYQQKPGKAPKLLIYGASNLQGGVPSRFSGSGSGTDFTLTISSLQPEDFAVYYCQQYMIAPPNTFGQGTKVEIKR |  |  |  | 4.1 nM | no binding | no binding | 0.4 nM | 17% | 8.44 nM
